Measured values published in the supplement of paper PMC10724198.
± gives the standard deviation of the averaged measurements.
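Note: PSI is a weighted mean of sequencing reads over stability bins, variants kept only with over 10 reads, mCherry proximal and sfGFP distal, peptide attached via GGGS linker.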

The sequences below were run on Saccharomyces cerevisiae (assay: protein stability index of tFT-peptide fusion (C-terminal peptide) (PSI (0-1 scale)); higher = more stable (slower turnover)). Conditions: genetic background: wild type; temperature: 30 C.
For PRRPPPLPPASF, the protein stability index was 0.713 ± 0.047. PRRSNPQPTHIR was tested, and the protein stability index was 0.708 ± 0.038. PRSLPLDHPAPC was tested, and the protein stability index was 0.709 ± 0.085. With PRSPLRYPPHCP the protein stability index was 0.691 ± 0.035. PRSPPPSSSTPD was tested, and the protein stability index was 0.688 ± 0.036. Sequence PRSPPRSLFFPC has a protein stability index of 0.648 ± 0.047. PRSRSGVAQGPE was tested, and the protein stability index was 0.6607 ± 0.0039. For PRSSVLPPCPSL, the protein stability index was 0.707 ± 0.025. In the case of PRSTFLRRHLRV, the protein stability index is reported as 0.6184 ± 0.0037. With PRTGPLPPLTPL the protein stability index was 0.679 ± 0.016. For PRTSSPPRPFRF, the protein stability index was 0.624 ± 0.022. For PRVLVVSAVNTV, the protein stability index was 0.695 ± 0.02. In the case of PRYAEFVGRFEV, the protein stability index is reported as 0.6508 ± 0.0064. Work on PSAFSPPARISL yielded a protein stability index of 0.761 ± 0.066. PSAGSPAPLLHP showed a protein stability index of 0.705 ± 0.064. PSALLGTCRCVQ gave a protein stability index of 0.706 ± 0.028. In the case of PSAPPPSPLGRT, the protein stability index is reported as 0.738 ± 0.059. For PSAQPPPRPTRP, the protein stability index was 0.6878 ± 0.0036. Sequence PSCLPPPAHLEL has a protein stability index of 0.705 ± 0.043. In the case of PSFLPPAPLGIS, the protein stability index is reported as 0.741 ± 0.038. PSFLSPCPPFLS was tested, and the protein stability index was 0.747 ± 0.039. Sequence PSFRTGLPPSDP has a protein stability index of 0.681 ± 0.038. For PSGLVSPSCLGC, the protein stability index was 0.68 ± 0.022. With PSGRRRWACARG the protein stability index was 0.694 ± 0.0097. Sequence PSHLHERIRPAR has a protein stability index of 0.726 ± 0.16. PSHLNAPTTAPP gave a protein stability index of 0.701 ± 0.038. Sequence PSHVFSDCIAPP has a protein stability index of 0.696 ± 0.011. With PSILRGVLSAPK the protein stability index was 0.695 ± 0.04. PSKRKRATPSKR showed a protein stability index of 0.647 ± 0.021. Sequence PSLCFLPPPPSP has a protein stability index of 0.686 ± 0.0076. In the case of PSLFHHWSVLSP, the protein stability index is reported as 0.785 ± 0.1. Sequence PSLHPLSPSPPA has a protein stability index of 0.686 ± 0.041. PSLHPNHLAPPP showed a protein stability index of 0.622 ± 0.046. For PSLLLPPYSSAP, the protein stability index was 0.743 ± 0.021. PSLPDSALRHSL was tested, and the protein stability index was 0.70673 ± 9.8e-05. Work on PSLPPPFPPLRP yielded a protein stability index of 0.7044 ± 0.0013. Work on PSLPPPSPSPPP yielded a protein stability index of 0.666 ± 0.05. PSLSPVEVPLSR showed a protein stability index of 0.759 ± 0.046. Work on PSLVGRVWLEFV yielded a protein stability index of 0.691 ± 0.061. Work on PSPALGPFLAYR yielded a protein stability index of 0.695 ± 0.0077. In the case of PSPAPRPFAPLP, the protein stability index is reported as 0.69 ± 0.01. For PSPASPPPPPLP, the protein stability index was 0.714 ± 0.2. In the case of PSPLAPPPRLPV, the protein stability index is reported as 0.733 ± 0.049. Work on PSPLFSGSFLFF yielded a protein stability index of 0.716 ± 0.029. For PSPLPLLPPPRP, the protein stability index was 0.645 ± 0.037. Work on PSPLPPPLPPPV yielded a protein stability index of 0.675 ± 0.043. In the case of PSPLPSPLLTTL, the protein stability index is reported as 0.6816 ± 0.0062. In the case of PSPPFPPPSPPP, the protein stability index is reported as 0.687 ± 0.02. Work on PSPPHLCPSPFA yielded a protein stability index of 0.7518 ± 0.0015. PSPPHPPIPTSP gave a protein stability index of 0.696 ± 0.015. PSPPIPALSFST gave a protein stability index of 0.684 ± 0.03. PSPPLPHLLLLP was tested, and the protein stability index was 0.6929 ± 0.0035. PSPPPPPRSFLH showed a protein stability index of 0.649 ± 0.066. Work on PSPPPPSRLLPP yielded a protein stability index of 0.689 ± 0.025. PSPPPSISIPPS showed a protein stability index of 0.73 ± 0.17. For PSPPPSPPSPPS, the protein stability index was 0.708 ± 0.02. In the case of PSPPQLPAAPSP, the protein stability index is reported as 0.779 ± 0.086. With PSPPRPRLPTAV the protein stability index was 0.67026 ± 0.00045. PSPPRPSGVPVT gave a protein stability index of 0.674 ± 0.017. Work on PSPPVMSPEVAC yielded a protein stability index of 0.627 ± 0.038. PSPQNIPDPISP showed a protein stability index of 0.673 ± 0.04. PSPRASLPRLPP showed a protein stability index of 0.597 ± 0.074. With PSPRPFPPPLPP the protein stability index was 0.6262 ± 0.0022. For PSPRPSPRPSPR, the protein stability index was 0.692 ± 0.062. PSPSAGPAPTPL showed a protein stability index of 0.65 ± 0.084. PSPSWYGRRLLG gave a protein stability index of 0.659 ± 0.027. Work on PSPTPPPPRSPS yielded a protein stability index of 0.721 ± 0.029. Work on PSQTTRSPPPPP yielded a protein stability index of 0.708 ± 0.015. Sequence PSQWLPSRSRTA has a protein stability index of 0.733 ± 0.052. In the case of PSRLAPPSPSIP, the protein stability index is reported as 0.694 ± 0.051. Work on PSRPSPSPHLPL yielded a protein stability index of 0.849 ± 0.011. PSSLRLPLCSPL gave a protein stability index of 0.7039 ± 0.004. PSSLSSLPPPSP was tested, and the protein stability index was 0.669 ± 0.024. Work on PSSPALIPCRLV yielded a protein stability index of 0.61 ± 0.027. PSSPLSPAPPPP gave a protein stability index of 0.659 ± 0.015. For PSTLLTFAISIP, the protein stability index was 0.666 ± 0.045. With PSTPLPHLTRPS the protein stability index was 0.677 ± 0.07. In the case of PSVPRLPGLSLR, the protein stability index is reported as 0.629 ± 0.053. PTAPVLRPPASP was tested, and the protein stability index was 0.7 ± 0.011. PTARIPGLYLFP was tested, and the protein stability index was 0.695 ± 0.049. In the case of PTHDPPSLHSPA, the protein stability index is reported as 0.604 ± 0.027. In the case of PTITPPPPPPPP, the protein stability index is reported as 0.625 ± 0.0067. For PTKSQNEKTKAE, the protein stability index was 0.679 ± 0.037. With PTLDATLSVASG the protein stability index was 0.667 ± 0.036. For PTLIPPPPPPGP, the protein stability index was 0.718 ± 0.059. Sequence PTLLRRVPPVPL has a protein stability index of 0.677 ± 0.087. With PTLPPHSLRPPP the protein stability index was 0.692 ± 0.018. In the case of PTPAPLPPPSPP, the protein stability index is reported as 0.592 ± 0.024. With PTPIPLGLHSLS the protein stability index was 0.705 ± 0.048. PTPLPPPPPRPD showed a protein stability index of 0.715 ± 0.063. PTPLPPRSPPPQ showed a protein stability index of 0.754 ± 0.045. For PTPPLPYRPRSP, the protein stability index was 0.674 ± 0.014. PTPRGTPCPDTM showed a protein stability index of 0.66 ± 0.065. PTPTTNPTHSAP was tested, and the protein stability index was 0.695 ± 0.048. With PTPTTSPASRQN the protein stability index was 0.682 ± 0.023. PTREGSDGMVGN was tested, and the protein stability index was 0.702 ± 0.021. PTRRFVFCDVDK was tested, and the protein stability index was 0.717 ± 0.077. With PTRSEGYSVVYM the protein stability index was 0.693 ± 0.043. Work on PTSPHPPPCSPP yielded a protein stability index of 0.724 ± 0.22. With PTTPPTILLLPL the protein stability index was 0.658 ± 0.031. PTTVSRPPPPSP showed a protein stability index of 0.711 ± 0.009. For PTVLFQFSESWP, the protein stability index was 0.668 ± 0.044. PTYDSLPLLDNC was tested, and the protein stability index was 0.673 ± 0.014. PTYRGAPCLPPF showed a protein stability index of 0.728 ± 0.013. PVFLEFESWCVC showed a protein stability index of 0.685 ± 0.044. PVFLSCCLCLLS showed a protein stability index of 0.78 ± 0.099. PVICFTSYPDRQ showed a protein stability index of 0.7 ± 0.098. In the case of PVLPLPSLPSPS, the protein stability index is reported as 0.675 ± 0.0093. For PVLRLPHDETAN, the protein stability index was 0.705 ± 0.035. Sequence PVLYWHSYRLCR has a protein stability index of 0.65 ± 0.008. Sequence PVPLLHPRSLSL has a protein stability index of 0.781 ± 0.074. Sequence PVSCMAWGRLVL has a protein stability index of 0.667 ± 0.041. For PVSPLFWSAKRL, the protein stability index was 0.71061 ± 0.00011. For PVSPSIHPPSYP, the protein stability index was 0.759 ± 0.023. For PVSSLPQTLLMF, the protein stability index was 0.758 ± 0.22. With PVVGNPHRIFGV the protein stability index was 0.714 ± 0.028. Sequence PVVKGAAGSAQR has a protein stability index of 0.725 ± 0.074. PWDPDTPIPPRP was tested, and the protein stability index was 0.716 ± 0.012. PWRLFVTSGSPA was tested, and the protein stability index was 0.714 ± 0.048. In the case of PWVGRFVRLGVR, the protein stability index is reported as 0.676 ± 0.058. With PYIPSSVSLRQD the protein stability index was 0.712 ± 0.0092. PYPNAQRIEIKF gave a protein stability index of 0.651 ± 0.026. For PYRFRDRTYEEL, the protein stability index was 0.673 ± 0.022. With PYSSVPLAPPRP the protein stability index was 0.736 ± 0.043. For QAGKPAIHHAAL, the protein stability index was 0.682 ± 0.0034. Sequence QAVTSVGTTNIV has a protein stability index of 0.689 ± 0.023. For QCAIRQCCLVSL, the protein stability index was 0.574 ± 0.064. QCGAWLKFTCHV gave a protein stability index of 0.636 ± 0.058. In the case of QCRSLVGGCCVW, the protein stability index is reported as 0.693 ± 0.031. Work on QCSVFSSPPRAL yielded a protein stability index of 0.723 ± 0.1. In the case of QCVSGLGPVVRT, the protein stability index is reported as 0.7329 ± 0.0029. In the case of QDERPLAPRTRW, the protein stability index is reported as 0.7251 ± 0.0032. Work on QDLIVENGSVSG yielded a protein stability index of 0.655 ± 0.009. QESPERRGVPPF was tested, and the protein stability index was 0.674 ± 0.047. Sequence QFSSPPLPLLSP has a protein stability index of 0.629 ± 0.035. With QGCSRHIRTGKK the protein stability index was 0.5741 ± 0.0037. With QGGRGGRHVTDI the protein stability index was 0.688 ± 0.022. With QGIKKKKEKERR the protein stability index was 0.768 ± 0.14. QGQAAHEHFHGR showed a protein stability index of 0.654 ± 0.042. In the case of QGREREAGAEVM, the protein stability index is reported as 0.699 ± 0.03. For QGRTWGGCWGRG, the protein stability index was 0.649 ± 0.012. In the case of QGSKQKIISAAT, the protein stability index is reported as 0.6807 ± 0.0064. Work on QIERSRIAYLST yielded a protein stability index of 0.6933 ± 0.0027. For QIQRSGGGGHCG, the protein stability index was 0.739 ± 0.0028. Sequence QITSHRVISRLV has a protein stability index of 0.546 ± 0.037. In the case of QKIREKKKRKKL, the protein stability index is reported as 0.622 ± 0.015. For QKKIIRKRKKNR, the protein stability index was 0.666 ± 0.012. Work on QKKKKKKVQKKQ yielded a protein stability index of 0.6702 ± 0.0054. QKKKKLAYVGKR showed a protein stability index of 0.659 ± 0.012. QKKKKNKKQKTE showed a protein stability index of 0.599 ± 0.021. For QKNETNQWKGKK, the protein stability index was 0.672 ± 0.032. Work on QKQINQKKRTMK yielded a protein stability index of 0.649 ± 0.055. With QKREEPQNKSQD the protein stability index was 0.72 ± 0.017. In the case of QKSCHIADGREL, the protein stability index is reported as 0.671 ± 0.022. QLEGQGISFRVL gave a protein stability index of 0.785 ± 0.065. QLENQRGWDRKI gave a protein stability index of 0.656 ± 0.038. Work on QLHGWMTRNPLL yielded a protein stability index of 0.746 ± 0.051. QLRPPHRTLHLP gave a protein stability index of 0.698 ± 0.028. QLSTSGLTTTAW showed a protein stability index of 0.707 ± 0.029. Work on QLYGHNRRNQGL yielded a protein stability index of 0.611 ± 0.046.
